Stoichiometry N data for one substance are collected here from article PMC8909857.

For the experiment, the target named is Channelrhodopsin-2 (D156C) (Chlamydomonas reinhardtii) (UniProt Q8RUT8). Nature of the experiment: SDS-PAGE; Coomassie-stained SDS-PAGE of SEC-purified fractions (elution volumes 11 to 15 mL); dimer partially SDS-resistant.

As to “Channelrhodopsin-2 (D156C) (from UniProt Q8RUT8 1-737) (natural protein)”, the stoichiometry N worked out at 2.
